Target: Strep-tag II-tagged VgrG spike protein of EAEC T6SS-1 (enteroaggregative Escherichia coli (EAEC) 17-2)
Assay: cryo-EM structure; single particle cryo-EM of the co-produced, double-affinity and SEC purified PAAR^FL-^SVgrG-Tle1^H complex; AlphaFold2 model plus PDB 6SJL docked into the maps

Substance “Strep-tag II-tagged VgrG spike protein of EAEC T6SS-1 (natural protein)” has a stoichiometry N of 3.

— paper PMC10715212
